The values that follow come from patent publication US20260077071A1, “Targeted Delivery of Theranostic Agents” (Peter MacCallum Cancer Institute, priority 2022, published 2026).

Structures are written as SMILES. Where two headings read alike, the source gives them in different places. Square brackets hold non-standard residues; d marks the D form. Peptide text beside a SMILES is read from it. * marks the point of attachment. DOTA = O=C(O)CN1CCN(CC(=O)O)CCN(CC(=O)*)CCN(CC(=O)O)CC1; Phe(4-Ac) = CC(=O)c1ccc(C[C@H](N)C(=O)O)cc1; NMe1Nal = CN[C@@H](Cc1cccc2ccccc12)C(=O)O; Phe(4-F) = N[C@@H](Cc1ccc(F)cc1)C(=O)O; 1Nal = N[C@@H](Cc1cccc2ccccc12)C(=O)O; NMeF = CN[C@@H](Cc1ccccc1)C(=O)O; NMeNle = CCCC[C@H](NC)C(=O)O; Sar = CNCC(=O)O

Series [1] is described as follows: in vitro. As to conditions: for remaining at 1.5 h: mouse, pH 7.3. In kind it is in vitro ADME, mouse. The procedure:
Drug detoxification, drug metabolism and metabolic stability are important determinants of the efficacy of theranostic candidates in clinical settings. To assess metabolic stability, radiolabelled Compounds [^68Ga]Ga-1-4 and comparative example-2 ([^68Ga]Ga-Cmp ex-2) were challenged by incubation in either human serum, mouse liver or kidney homogenates and HEPES buffer as a negative control. Duplicate samples (750-900 pmol/mL) were incubated at 37° C. with pooled human serum, 15% mouse kidney homogenate, 30% mouse liver homogenate or 20 mM HEPES, pH 7.3 (control). Human blood was collected and serum prepared using SSTII advance vacutainer tubes according to the manufacturer's instructions (Becton Dickinson, New Jersey, USA). Mouse kidney and liver homogenates were prepared by washing the tissues in ice-cold HEPES buffer, pH 7.3 and placing them in pre-chilled tubes containing HEPES buffer and 2.38 mm metal beads (Mo-Bio Laboratories, Hilden, Germany). Tissues were homogenised using the PowerLyzer24 homogeniser (Qiagen, Hilden, Germany) according to the manufacturer's instructions. Ga-68 radiolabelled peptides were incubated with the various lysates at 37° C. and samples were collected at 15, 30, 60 and 90 min. Reactions were terminated by addition of an equal volume of acetonitrile and centrifugation for 2 min at 15,000 rpm. Supernatants were diluted in water before being analysed by HPLC using a Kinetex C18 XB column (5 μm 4.6×150 mm), eluted at 1.5 mL/min of gradient 20-60% MeCN in water containing 0.1% formic acid over 7 min.

A short description of series [2]: LogD7.4 determination (PBS pH 7.4 / n-octanol). In kind it is physicochemical. As to conditions: PBS/Octanol mix, n = 5. On the procedure:
The distribution coefficients (LogD7.4) of radiolabelled compounds [^68Ga]Ga-1-4, and [^68Ga]Ga-Cmp ex-2 were assayed by measuring radioactivity distribution in the aqueous phase (phosphate buffer pH7.4) and the organic phase (n-octanol). To determine the distribution coefficient (LogD), Ga-68 radiolabelled compounds were diluted to 20 pmol/mL in PBS (pH 7.4) and an equal volume of n-octanol was added. The mixture was vortexed vigorously for 10 cycles of 1 min at room temperature before being centrifuged for 6 min to separate the two phases. Equal volumes from each phase were aliquoted into individual counting tubes and analysed for 1 min using the Perkin Elmer 2480 Wizard2™ gamma counter (PerkinElmer, Massachusetts, USA). The distribution coefficient was calculated using the following equation [formula]

For series [3], the target named is T1, human full-length CCK-2 receptor (Homo sapiens, UniProt P32239).
T1 construct: stably transfected to over-express the human full-length CCK-2 receptor (A431-CCK-2R); expressed in transfected cells
T1 sequence (P32239 1-447): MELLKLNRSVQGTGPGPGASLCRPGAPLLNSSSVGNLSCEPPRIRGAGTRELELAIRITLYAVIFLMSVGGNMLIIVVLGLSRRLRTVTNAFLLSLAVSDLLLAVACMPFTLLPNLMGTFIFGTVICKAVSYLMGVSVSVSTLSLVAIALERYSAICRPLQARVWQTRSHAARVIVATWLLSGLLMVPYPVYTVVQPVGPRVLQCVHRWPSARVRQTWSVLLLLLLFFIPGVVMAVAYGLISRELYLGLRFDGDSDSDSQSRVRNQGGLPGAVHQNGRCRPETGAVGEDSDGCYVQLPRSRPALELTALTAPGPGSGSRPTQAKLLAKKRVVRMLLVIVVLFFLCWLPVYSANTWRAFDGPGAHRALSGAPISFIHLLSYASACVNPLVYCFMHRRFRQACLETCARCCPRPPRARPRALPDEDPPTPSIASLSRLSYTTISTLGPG
As to the kind of experiment: Competitive ligand binding against [^177Lu]Lu-DOTA-CP04 in A431-CCK-2R cells. As to conditions: for IC50: read-out: IC50. The procedure: CCK-2 receptor binding experiments were conducted using A431 (human epidermoid carcinoma) cells stably transfected to over-express the human full-length CCK-2 receptor (A431-CCK-2R). As a negative control, A431 cells stably transfected with an empty vector were analysed simultaneously (A431-EV). A431 cells were maintained in DMEM (Gibco, Australia) media supplemented with 10% foetal calf serum and 250 μg/mL G418 as described previously (Aloj L, et al., J Nucl Med., 2004, Mar; 45(3), 485-94). The affinity of peptides for the CCK-2R was evaluated using competitive binding assays against [^177Lu]Lu-DOTA-CP04 in A431-CCK-2R cells. Briefly, 48 h before the experiment cells were plated at a density of 650,000 cells per well in 6 well plates. On the day of the experiment the peptides were diluted in DMEM supplemented with 1% foetal calf serum to at least 7 different concentrations (0-400 nM) and approximately 50,000 cpm of [^177Lu]Lu-DOTA-CP04 was added to each dilution. Cells were washed twice in ice-cold binding buffer (DMEM supplemented with 1% foetal calf serum) and resuspended in 1.5 mL of the pre-prepared compound mix before being incubated at 37° C. for 1 h. Post-incubation the media was removed and kept for analysis (unbound fraction) and the cells were washed twice in ice-cold binding buffer, which was pooled with the unbound fraction. Finally, 1 M NaOH was added to the cells and allowed to incubate for 5 min before lysates were collected (bound fraction). A small volume of lysate was kept aside to determine protein concentration using the Pierce® BCA protein assay kit (Thermo Fisher, Australia). All samples were analysed using the Perkin Elmer 2480 Wizard2™ gamma counter (PerkinElmer, Massachusetts, USA) and were normalised according to protein concentration. Half-maximal inhibitory concentrations (IC50) were determined using nonlinear regression calculated using GraphPad Prism Software (GraphPad Software, California, USA).
The compounds were evaluated for their ability to disrupt the binding between CCK-2 receptor (CCK-2R) and [^177Lu]Lu-DOTA-CP04 using the methodology described above and compared to comparative example-2 (FIG. 2; Table 5).

Setting [4] is: modified peptides based on Peptide C (Table 4).

What is called amount remaining is the share of the starting amount still present when the sample was taken. On to `CCCC[C@@H](C(=O)N[C@@H](CC(=O)O)C(=O)N(C)[C@@H](Cc1cccc2ccccc12)C(N)=O)N(C)C(=O)[C@H](Cc1c[nH]c2ccccc12)NC(=O)CN(C)C(=O)[C@H](Cc1ccc(O)cc1)NC(=O)[C@H](C)NC(=O)[C@@H](CCC(=O)O)NC(=O)[C@@H](CCC(=O)O)NC(=O)[C@@H](CCC(=O)O)NC(=O)[C@@H](C)NC(=O)[C@@H](CCC(=O)O)NC(=O)[C@@H](CCC(=O)O)NC(=O)CN1CCN(CC(=O)O)CCN(CC(=O)O)CCN(CC(=O)O)CC1` [Compound 4] ({DOTA}-[dE][dE][dA][dE][dE][dE]AY[Sar]W[NMeNle]D[NMe1Nal]-NH2), for which, in series [1] (tissue homogenate), the amount remaining at 1.5 h came to 100%.
As for `CCCC[C@@H](C(=O)N[C@@H](CC(=O)O)C(=O)N[C@@H](Cc1cccc2ccccc12)C(N)=O)N(C)C(=O)[C@H](Cc1c[nH]c2ccccc12)NC(=O)CN(C)C(=O)[C@H](Cc1ccc(O)cc1)NC(=O)[C@H](C)NC(=O)[C@@H](CCC(=O)O)NC(=O)[C@@H](CCC(=O)O)NC(=O)[C@@H](CCC(=O)O)NC(=O)[C@@H](C)NC(=O)[C@@H](CCC(=O)O)NC(=O)[C@@H](CCC(=O)O)NC(=O)CN1CCN(CC(=O)O)CCN(CC(=O)O)CCN(CC(=O)O)CC1` [[^68Ga]Ga-1, metal not drawn] ({DOTA}-[dE][dE][dA][dE][dE][dE]AY[Sar]W[NMeNle]D[1Nal]-NH2), in series [1], the “metabolism in kidney homogenates” value is on record as “significant metabolism” and the “metabolism in liver homogenates” value is listed as “significant metabolism”. The compound further came in with a fraction remaining at 1.5 h in series [1] (other tissue homogenate) of 75%. Also, in series [1] (tissue homogenate), the fraction remaining at 1.5 h is 85%. Also, in series [2], the LogD7.4 is −2.88 ± 0.09.
By IC50 is commonly meant the concentration at which inhibition is half-maximal. On to `CCCC[C@@H](C(=O)N[C@@H](CC(=O)O)C(=O)N[C@@H](Cc1ccc(F)cc1)C(N)=O)N(C)C(=O)[C@H](Cc1c[nH]c2ccccc12)NC(=O)CN(C)C(=O)[C@H](Cc1ccc(O)cc1)NC(=O)[C@H](C)NC(=O)[C@@H](CCC(=O)O)NC(=O)[C@@H](CCC(=O)O)NC(=O)[C@@H](CCC(=O)O)NC(=O)[C@@H](C)NC(=O)[C@@H](CCC(=O)O)NC(=O)[C@H](N)CCC(=O)O` [O] (H-[dE][dE][dA][dE][dE][dE]AY[Sar]W[NMeNle]D[Phe(4-F)]-NH2; N-terminus assumed), for which, in series [3] (setting [4]), the concentration for half-maximal inhibition (IC50) came out at 0.368 ± 0.04 nM.
For the compound `CCCC[C@@H](C(=O)N[C@@H](CC(=O)O)C(=O)N(C)[C@@H](Cc1ccccc1)C(N)=O)N(C)C(=O)[C@H](Cc1c[nH]c2ccccc12)NC(=O)CN(C)C(=O)[C@H](Cc1ccc(O)cc1)NC(=O)[C@H](C)NC(=O)[C@@H](CCC(=O)O)NC(=O)[C@@H](CCC(=O)O)NC(=O)[C@@H](CCC(=O)O)NC(=O)[C@@H](C)NC(=O)[C@@H](CCC(=O)O)NC(=O)[C@@H](CCC(=O)O)NC(=O)CN1CCN(CC(=O)O)CCN(CC(=O)O)CCN(CC(=O)O)CC1` [[^68Ga]Ga-2, metal not drawn] ({DOTA}-[dE][dE][dA][dE][dE][dE]AY[Sar]W[NMeNle]D[NMeF]-NH2), in series [1], the “metabolism in kidney homogenates” value is “no observable metabolites detected” and the “metabolism in liver homogenates” value is listed as “no observable metabolites detected”. This compound came in with a LogD7.4 in series [2] of −3.56 ± 0.01.
Consider `CCCC[C@@H](C(=O)N[C@@H](CC(=O)O)C(=O)N[C@@H](Cc1cccc2ccccc12)C(N)=O)N(C)C(=O)[C@H](Cc1c[nH]c2ccccc12)NC(=O)CN(C)C(=O)[C@H](Cc1ccc(O)cc1)NC(=O)[C@H](C)NC(=O)[C@@H](CCC(=O)O)NC(=O)[C@@H](CCC(=O)O)NC(=O)[C@@H](CCC(=O)O)NC(=O)[C@@H](CCC(=O)O)NC(=O)[C@@H](CCC(=O)O)NC(=O)[C@H](N)CCC(=O)O` [Cmp ex-1, reference compound] (H-[dE][dE][dE][dE][dE][dE]AY[Sar]W[NMeNle]D[1Nal]-NH2; N-terminus assumed), for which, in series [3] (D-Ala substituted peptides (Table 2), against [^177Lu]Lu-DOTA-CP04 in A431-CCK-2R cells), the IC50 amounted to 0.319 nM. In addition, in series [3] (free peptide versus its linker/metal-complex (DOTA) form), the “decrease in affinity for the CCK-2 receptor” value is recorded as 5 fold.
With `CCCC[C@@H](C(=O)N[C@@H](CC(=O)O)C(=O)N[C@@H](Cc1ccc(C(C)=O)cc1)C(N)=O)N(C)C(=O)[C@H](Cc1c[nH]c2ccccc12)NC(=O)CN(C)C(=O)[C@H](Cc1ccc(O)cc1)NC(=O)[C@H](C)NC(=O)[C@@H](CCC(=O)O)NC(=O)[C@@H](CCC(=O)O)NC(=O)[C@@H](CCC(=O)O)NC(=O)[C@@H](C)NC(=O)[C@@H](CCC(=O)O)NC(=O)[C@H](N)CCC(=O)O` [V] (H-[dE][dE][dA][dE][dE][dE]AY[Sar]W[NMeNle]D[Phe(4-Ac)]-NH2; N-terminus assumed), the IC50 in series [3] (setting [4]) is 0.948 ± 0.052 nM.
Take `CCCC[C@@H](C(=O)N[C@@H](CC(=O)O)C(=O)N[C@@H](Cc1cccc2ccccc12)C(N)=O)N(C)C(=O)[C@H](Cc1c[nH]c2ccccc12)NC(=O)CN(C)C(=O)[C@H](Cc1ccc(O)cc1)NC(=O)[C@H](C)NC(=O)[C@@H](CCC(=O)O)NC(=O)[C@@H](C)NC(=O)[C@@H](CCC(=O)O)NC(=O)[C@@H](CCC(=O)O)NC(=O)[C@@H](CCC(=O)O)NC(=O)[C@H](N)CCC(=O)O` [E] (H-[dE][dE][dE][dE][dA][dE]AY[Sar]W[NMeNle]D[1Nal]-NH2): the “loss of binding affinity / activity” value in series [3] (D-Ala analogue versus baseline comparative example-1) is listed as “equivalent loss of activity”.
On to `CCCC[C@@H](C(=O)N[C@@H](CC(=O)O)C(=O)N[C@@H](Cc1ccccc1)C(N)=O)N(C)C(=O)[C@H](Cc1c[nH]c2ccccc12)NC(=O)CN(C)C(=O)[C@H](Cc1ccc(O)cc1)NC(=O)[C@H](C)NC(=O)[C@@H](CCC(=O)O)NC(=O)[C@@H](CCC(=O)O)NC(=O)[C@@H](CCC(=O)O)NC(=O)[C@@H](C)NC(=O)[C@@H](CCC(=O)O)NC(=O)[C@@H](CCC(=O)O)NC(=O)CN1CCN(CC(=O)O)CCN(CC(=O)O)CCN(CC(=O)O)CC1` [[^68Ga]Ga-3, metal not drawn] ({DOTA}-[dE][dE][dA][dE][dE][dE]AY[Sar]W[NMeNle]DF-NH2), for which, in series [1], the “metabolism in kidney homogenates” value is reported as “significant metabolism” and the “metabolism in liver homogenates” value is “significant metabolism”. For the same compound, the share remaining at 1.5 h in series [1] (other tissue homogenate) is 20%. In series [1] (tissue homogenate), this compound came in with a share remaining at 1.5 h of about 35%. Further, the LogD7.4 in series [2] is listed as −4.06 ± 0.14.
